Reference: patent US20110098212A1 (LONDON SCHOOL OF HYGIENE AND TROPICAL MEDICINE, published 2011)

B1: HHV-6 U83A, native full length mature chemokine (ligand)
chain: FICSSPDAELFSEKSRMSSSVLLGCLLCCMDWSAAVPGKTEPFRKLFDAIMIKKLKSCSAAYPSDLEQGSMCDMADASPTSLELGLSKLDKES
B2: CCL3/MIP-1alpha (ligand, human, UniProt P10147 27-92, looked up)
chain: ADTPTACCFSYTSRQIPQNFIADYFETSSQCSKPGVIFLTKRSRQVCADPSEEWVQKYVSDLELSA

What was measured:
[1] = target: human chemokine receptor CCR5 (human, UniProt P51681 1-352)
chemokine receptor CCR8 = chemokine receptor CCR8 (human, UniProt P51685 1-355); test: cell-based or functional assay
chemokine receptor CCR1 = target: T1, chemokine receptor CCR1 (human, UniProt P32246 1-355); test: cell-based or functional assay
T1 sequence (looked up): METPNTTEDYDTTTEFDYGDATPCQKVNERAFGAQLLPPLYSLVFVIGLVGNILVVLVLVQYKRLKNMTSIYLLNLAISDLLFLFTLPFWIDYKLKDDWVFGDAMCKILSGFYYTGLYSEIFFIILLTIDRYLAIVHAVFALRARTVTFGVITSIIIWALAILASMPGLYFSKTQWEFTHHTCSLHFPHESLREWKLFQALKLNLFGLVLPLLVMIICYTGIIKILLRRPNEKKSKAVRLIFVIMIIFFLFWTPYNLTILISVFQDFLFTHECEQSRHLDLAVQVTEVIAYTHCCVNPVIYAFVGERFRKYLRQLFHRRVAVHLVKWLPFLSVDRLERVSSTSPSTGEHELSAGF

chemokine receptor CCR6 = target: T2, chemokine receptor CCR6 (human, UniProt P51684 1-374); test: cell-based or functional assay
T2 sequence (looked up): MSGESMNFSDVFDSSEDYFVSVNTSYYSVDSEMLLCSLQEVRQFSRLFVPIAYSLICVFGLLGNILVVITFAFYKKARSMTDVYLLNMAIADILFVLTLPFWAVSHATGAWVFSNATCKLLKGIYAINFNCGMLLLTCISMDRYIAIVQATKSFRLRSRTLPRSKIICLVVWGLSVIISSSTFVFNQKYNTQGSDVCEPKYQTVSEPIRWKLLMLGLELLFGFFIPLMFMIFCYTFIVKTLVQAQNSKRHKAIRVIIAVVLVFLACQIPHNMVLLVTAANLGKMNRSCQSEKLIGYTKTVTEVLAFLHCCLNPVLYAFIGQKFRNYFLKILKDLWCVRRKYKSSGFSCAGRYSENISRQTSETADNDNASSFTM

chemokine receptor CCR4 = target: T3, chemokine receptor CCR4 (human, UniProt P51679 1-360); test: cell-based or functional assay
T3 sequence (looked up): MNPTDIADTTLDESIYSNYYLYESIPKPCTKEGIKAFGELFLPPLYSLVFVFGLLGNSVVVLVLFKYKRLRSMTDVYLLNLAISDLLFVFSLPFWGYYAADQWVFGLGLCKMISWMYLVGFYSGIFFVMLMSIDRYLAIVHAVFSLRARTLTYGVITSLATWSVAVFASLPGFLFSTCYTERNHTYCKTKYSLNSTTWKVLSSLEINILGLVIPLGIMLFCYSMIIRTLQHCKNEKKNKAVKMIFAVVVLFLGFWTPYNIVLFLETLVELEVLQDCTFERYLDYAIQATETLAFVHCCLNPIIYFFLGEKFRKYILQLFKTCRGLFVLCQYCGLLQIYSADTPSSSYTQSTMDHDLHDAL

human chemokine receptor CCR5, sequence (P51681 whole entry): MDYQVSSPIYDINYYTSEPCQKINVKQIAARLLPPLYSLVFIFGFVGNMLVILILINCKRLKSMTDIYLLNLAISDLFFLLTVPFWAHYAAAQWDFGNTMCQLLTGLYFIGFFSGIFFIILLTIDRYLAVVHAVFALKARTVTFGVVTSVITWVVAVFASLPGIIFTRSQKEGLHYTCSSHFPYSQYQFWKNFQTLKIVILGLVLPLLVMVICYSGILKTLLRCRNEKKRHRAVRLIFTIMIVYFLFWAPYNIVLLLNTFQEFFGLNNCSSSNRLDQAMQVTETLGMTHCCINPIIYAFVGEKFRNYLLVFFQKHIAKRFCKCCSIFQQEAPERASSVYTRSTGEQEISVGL

Row | Binder | IC50 [1] [nM] | EC50, calcium mobilisation in CCR8-CHO cells (chemokine receptor CCR8) [nM] | calcium mobilisation at 10 nM U83A, percent of the response to endogenous ligand (chemokine receptor CCR8) [%] | calcium mobilisation at 100 nM U83A, percent of the response to endogenous ligand (chemokine receptor CCR8) [%] | EC50, calcium mobilisation in CCR1-CHO cells (chemokine receptor CCR1) [nM] | calcium mobilisation at 10 nM U83A, percent of the response to endogenous ligand (chemokine receptor CCR1) [%] | minimal effective dose, calcium mobilisation (chemokine receptor CCR1) [nM] | EC50, calcium mobilisation in CCR6-CHO cells (chemokine receptor CCR6) [nM] | calcium mobilisation at 10 nM U83A, percent of the response to endogenous ligand (chemokine receptor CCR6) [%] | calcium mobilisation at 100 nM U83A, percent of the response to endogenous ligand (chemokine receptor CCR6) [%] | minimal effective dose, calcium mobilisation (chemokine receptor CCR6) [nM] | EC50, calcium mobilisation in CCR4-CHO cells (chemokine receptor CCR4) [nM] | calcium mobilisation at 10 nM U83A, percent of the response to endogenous ligand (chemokine receptor CCR4) [%] | calcium mobilisation at 100 nM U83A, percent of the response to endogenous ligand (chemokine receptor CCR4) [%] | minimal effective dose, calcium mobilisation (chemokine receptor CCR4) [nM]
1 | B1 | 0.11 | 6.42 | 65 | 85 | 9.17 | 60 | 7.5 | 10.3 | 35 | 80 | 7.5 | 8.96 | 50 | 84 | 7.5
2 | B2 |  |  |  |  | 2.75 |  |  |  |  |  |  |  |  |  | 
